Test results published in patent publication US20230374157A1.

Legend:
[1] = molecular target: His-tagged human EGFR extracellular domain (expressed and purified in-house) (human) (UniProt P00533); assay: BLI, antibody on AHC tips, monomeric EGFR ECD in solution, 1:1 fit
[2] = molecular target: His-tagged human HER3 extracellular domain (Acro ER3-H5223) (human) (UniProt P21860); assay: BLI, antibody on AHC tips, monomeric HER3 ECD in solution, 1:1 fit

B1: SI-1C4 (duligotuzumab), 2-in-1 bispecific antibody against EGFR and HER3 (bispecific antibody, from a related filing, V domains shown)
VH: EVQLVESGGGLVQPGGSLRLSCAASGFTLSGDWIHWVRQAPGKGLEWVGEISAAGGYTDYADSVKGRFTISADTSKNTAYLQMNSLRAEDTAVYYCARESRVSFEAAMDYWGQGTLVTVSS
VL: DIQMTQSPSSLSASVGDRVTITCRASQNIATDVAWYQQKPGKAPKLLIYSASFLYSGVPSRFSGSGSGTDFTLTISSLQPEDFATYYCQQSEPEPYTFGQGTKVEIKR
Binder B1 has a Kd [1] of 14.6 nM, a koff [1] of 0.00438 s⁻¹ and a kon [1] of 300000 M⁻¹ s⁻¹. For the same binder, the Kd [2] was 4.29 nM, the koff [2] was 0.000877 s⁻¹ and the kon [2] was 205000 M⁻¹ s⁻¹.
